Data: publication PMC12170886, “CHD8 interacts with BCL11A to induce oncogenic transcription in triple negative breast cancer” (The EMBO Journal, 2025)

Biological target: T1, recombinant full-length human CHD8 (human, UniProt Q9HCK8 1-2581)
T1 construct: CHD8, human, full length; no cleavage of the tag is described; also called full-length CHD8; full-length Chd8; source: Expi293F, transiently transfected, purified (StrepTactin XT 4-Flow resin)
Experiment: SPR; Biacore T200; CHD8 amine-coupled to a C1 chip (1585 RU), BSA-coupled reference cell; BCL11A injected 2.62-5737.5 nM (1:3 series), 600 s association, 300 s dissociation; 25 °C, HBS-P+ (10 mM HEPES, 150 mM NaCl, 0.05% Tween 20, pH 7.4); steady-state fit of responses at 600 s
Settings: both partners purified

T1 sequence (Q9HCK8 whole entry): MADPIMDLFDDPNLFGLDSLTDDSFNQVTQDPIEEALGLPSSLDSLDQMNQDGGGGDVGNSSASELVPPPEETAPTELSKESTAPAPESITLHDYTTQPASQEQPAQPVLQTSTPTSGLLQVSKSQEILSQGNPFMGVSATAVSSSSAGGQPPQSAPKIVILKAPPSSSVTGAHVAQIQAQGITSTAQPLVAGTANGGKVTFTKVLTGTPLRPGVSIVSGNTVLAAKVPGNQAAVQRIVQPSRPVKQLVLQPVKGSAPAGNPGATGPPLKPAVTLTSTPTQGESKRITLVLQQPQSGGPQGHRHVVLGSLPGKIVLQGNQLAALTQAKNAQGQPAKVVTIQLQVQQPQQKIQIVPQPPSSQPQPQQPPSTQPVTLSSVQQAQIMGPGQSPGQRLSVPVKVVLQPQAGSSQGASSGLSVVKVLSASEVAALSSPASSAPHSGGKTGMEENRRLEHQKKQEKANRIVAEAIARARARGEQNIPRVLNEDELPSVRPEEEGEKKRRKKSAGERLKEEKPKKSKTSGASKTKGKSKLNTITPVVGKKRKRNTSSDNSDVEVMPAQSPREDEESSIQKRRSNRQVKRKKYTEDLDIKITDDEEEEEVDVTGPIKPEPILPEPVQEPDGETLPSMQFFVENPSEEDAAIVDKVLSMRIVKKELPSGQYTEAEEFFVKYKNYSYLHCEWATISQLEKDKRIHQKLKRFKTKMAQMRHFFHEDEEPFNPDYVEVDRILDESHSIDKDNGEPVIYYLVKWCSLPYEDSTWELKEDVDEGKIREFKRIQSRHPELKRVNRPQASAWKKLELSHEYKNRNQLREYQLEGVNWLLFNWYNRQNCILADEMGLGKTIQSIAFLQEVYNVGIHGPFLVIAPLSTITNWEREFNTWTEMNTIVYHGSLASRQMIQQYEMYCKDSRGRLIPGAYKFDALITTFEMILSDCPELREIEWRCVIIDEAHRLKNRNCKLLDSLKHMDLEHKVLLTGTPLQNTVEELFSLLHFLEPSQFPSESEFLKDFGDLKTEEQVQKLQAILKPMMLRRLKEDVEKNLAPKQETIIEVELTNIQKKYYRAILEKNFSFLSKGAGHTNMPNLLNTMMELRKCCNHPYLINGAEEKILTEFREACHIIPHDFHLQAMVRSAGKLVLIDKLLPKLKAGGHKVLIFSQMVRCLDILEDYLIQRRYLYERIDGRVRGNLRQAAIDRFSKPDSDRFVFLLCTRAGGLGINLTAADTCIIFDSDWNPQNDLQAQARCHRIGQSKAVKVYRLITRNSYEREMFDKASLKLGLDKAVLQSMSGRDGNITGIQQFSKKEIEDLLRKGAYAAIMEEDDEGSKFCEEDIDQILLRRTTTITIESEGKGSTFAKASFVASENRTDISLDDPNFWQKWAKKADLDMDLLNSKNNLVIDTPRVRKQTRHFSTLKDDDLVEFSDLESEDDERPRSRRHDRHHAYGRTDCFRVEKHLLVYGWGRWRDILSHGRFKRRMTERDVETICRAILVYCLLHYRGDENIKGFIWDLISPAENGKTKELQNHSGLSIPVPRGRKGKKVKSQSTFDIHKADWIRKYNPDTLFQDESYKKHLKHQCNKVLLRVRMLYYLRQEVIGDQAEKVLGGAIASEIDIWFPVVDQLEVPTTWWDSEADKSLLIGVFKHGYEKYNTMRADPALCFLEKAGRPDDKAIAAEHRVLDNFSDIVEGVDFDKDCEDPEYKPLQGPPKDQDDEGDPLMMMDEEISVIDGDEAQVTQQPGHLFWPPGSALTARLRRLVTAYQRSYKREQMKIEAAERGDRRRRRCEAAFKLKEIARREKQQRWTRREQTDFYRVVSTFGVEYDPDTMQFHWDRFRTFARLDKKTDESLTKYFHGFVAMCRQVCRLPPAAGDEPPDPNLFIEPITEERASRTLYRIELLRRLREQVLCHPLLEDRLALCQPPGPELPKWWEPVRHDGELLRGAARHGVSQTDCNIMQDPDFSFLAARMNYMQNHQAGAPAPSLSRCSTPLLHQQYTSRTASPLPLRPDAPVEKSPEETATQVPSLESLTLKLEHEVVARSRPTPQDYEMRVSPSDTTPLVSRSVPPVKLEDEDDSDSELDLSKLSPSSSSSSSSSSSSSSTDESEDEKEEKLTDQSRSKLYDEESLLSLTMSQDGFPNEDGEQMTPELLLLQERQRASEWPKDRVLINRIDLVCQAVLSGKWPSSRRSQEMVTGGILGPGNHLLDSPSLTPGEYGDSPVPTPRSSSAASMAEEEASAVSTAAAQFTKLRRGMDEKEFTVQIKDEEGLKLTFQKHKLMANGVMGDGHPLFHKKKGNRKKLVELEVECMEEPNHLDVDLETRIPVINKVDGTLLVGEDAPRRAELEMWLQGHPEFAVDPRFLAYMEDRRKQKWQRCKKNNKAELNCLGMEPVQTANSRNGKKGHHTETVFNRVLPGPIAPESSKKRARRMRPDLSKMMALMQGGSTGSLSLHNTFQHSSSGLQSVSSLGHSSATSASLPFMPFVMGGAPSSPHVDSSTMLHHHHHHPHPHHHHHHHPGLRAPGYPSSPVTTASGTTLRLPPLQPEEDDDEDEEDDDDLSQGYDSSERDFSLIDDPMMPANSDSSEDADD

B1: recombinant full-length human BCL11A (natural protein, UniProt Q9H165 1-835, looked up)
chain: MSRRKQGKPQHLSKREFSPEPLEAILTDDEPDHGPLGAPEGDHDLLTCGQCQMNFPLGDILIFIEHKRKQCNGSLCLEKAVDKPPSPSPIEMKKASNPVEVGIQVTPEDDDCLSTSSRGICPKQEHIADKLLHWRGLSSPRSAHGALIPTPGMSAEYAPQGICKDEPSSYTCTTCKQPFTSAWFLLQHAQNTHGLRIYLESEHGSPLTPRVGIPSGLGAECPSQPPLHGIHIADNNPFNLLRIPGSVSREASGLAEGRFPPTPPLFSPPPRHHLDPHRIERLGAEEMALATHHPSAFDRVLRLNPMAMEPPAMDFSRRLRELAGNTSSPPLSPGRPSPMQRLLQPFQPGSKPPFLATPPLPPLQSAPPPSQPPVKSKSCEFCGKTFKFQSNLVVHRRSHTGEKPYKCNLCDHACTQASKLKRHMKTHMHKSSPMTVKSDDGLSTASSPEPGTSDLVGSASSALKSVVAKFKSENDPNLIPENGDEEEEEDDEEEEEEEEEEEEELTESERVDYGFGLSLEAARHHENSSRGAVVGVGDESRALPDVMQGMVLSSMQHFSEAFHQVLGEKHKRGHLAEAEGHRDTCDEDSVAGESDRIDDGTVNGRGCSPGESASGGLSKKLLLGSPSSLSPFSKRIKLEKEFDLPPAAMPNTENVYSQWLAGYAASRQLKDPFLSFGDSRQSPFASSSEHSSENGSLRFSTPPGELDGGISGRSGTGSGGSTPHISGPGPGRPSSKEGRRSDTCEYCGKVFKNCSNLTVHRRSHTGERPYKCELCNYACAQSSKLTRHMKTHGQVGKDVYKCEICKMPFSVYSTLEKHMKKWHSDRVLNNDIKTE
notes: BCL11A, human, full length; no cleavage of the tag is described; also called full-length BCL11A; source: Expi293F, transiently transfected, purified (StrepTactin XT 4-Flow resin)
Kd: 870 nM
